In article PMC4295836 (Arteriosclerosis, thrombosis, and vascular biology, 2013):
Values belong to the binder of their own block, whether it stands above or below them.

Biological target: T1, G-protein–coupled receptor kinase–interacting protein-1 (human (endogenous in HUVEC), UniProt Q9Y2X7 1-761)
T1 sequence (looked up): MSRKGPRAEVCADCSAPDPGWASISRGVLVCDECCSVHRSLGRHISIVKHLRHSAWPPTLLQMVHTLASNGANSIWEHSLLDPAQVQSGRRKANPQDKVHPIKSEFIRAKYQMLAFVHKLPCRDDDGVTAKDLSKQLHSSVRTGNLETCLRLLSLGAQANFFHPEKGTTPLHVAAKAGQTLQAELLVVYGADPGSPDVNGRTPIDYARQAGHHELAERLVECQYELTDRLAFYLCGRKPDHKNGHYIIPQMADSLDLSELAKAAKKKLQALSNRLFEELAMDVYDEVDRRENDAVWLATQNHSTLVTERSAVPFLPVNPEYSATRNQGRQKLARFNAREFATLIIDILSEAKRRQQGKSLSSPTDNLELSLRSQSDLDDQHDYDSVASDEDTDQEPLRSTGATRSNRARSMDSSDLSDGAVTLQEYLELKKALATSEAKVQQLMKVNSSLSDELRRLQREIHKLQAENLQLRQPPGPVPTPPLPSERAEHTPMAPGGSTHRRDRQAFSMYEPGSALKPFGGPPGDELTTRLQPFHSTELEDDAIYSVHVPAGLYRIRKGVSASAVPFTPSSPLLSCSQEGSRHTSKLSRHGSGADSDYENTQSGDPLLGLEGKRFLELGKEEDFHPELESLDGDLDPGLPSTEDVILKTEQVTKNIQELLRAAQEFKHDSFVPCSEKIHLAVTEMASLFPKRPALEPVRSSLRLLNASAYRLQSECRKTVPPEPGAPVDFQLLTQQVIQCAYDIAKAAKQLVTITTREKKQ
Test: co-IP

- fold increase of association on VEGF (vs unstimulated): 6 fold
B1: cortactin (natural protein, human (endogenous in HUVEC), UniProt Q14247 1-550, looked up)
chain: MWKASAGHAVSIAQDDAGADDWETDPDFVNDVSEKEQRWGAKTVQGSGHQEHINIHKLRENVFQEHQTLKEKELETGPKASHGYGGKFGVEQDRMDKSAVGHEYQSKLSKHCSQVDSVRGFGGKFGVQMDRVDQSAVGFEYQGKTEKHASQKDYSSGFGGKYGVQADRVDKSAVGFDYQGKTEKHESQRDYSKGFGGKYGIDKDKVDKSAVGFEYQGKTEKHESQKDYVKGFGGKFGVQTDRQDKCALGWDHQEKLQLHESQKDYKTGFGGKFGVQSERQDSAAVGFDYKEKLAKHESQQDYSKGFGGKYGVQKDRMDKNASTFEDVTQVSSAYQKTVPVEAVTSKTSNIRANFENLAKEKEQEDRRKAEAERAQRMAKERQEQEEARRKLEEQARAKTQTPPVSPAPQPTEERLPSSPVYEDAASFKAELSYRGPVSGTEPEPVYSMEAADYREASSQQGLAYATEAVYESAEAPGHYPAEDSTYDEYENDLGITAVALYDYQAAGDDEISFDPDDIITNIEMIDDGWWRGVCKGRYGLFPANYVELRQ

- fold increase of its level in the GIT1–cortactin complex on VEGF: 4 fold
B2: phosphorylated S405-cortactin (natural protein, human (endogenous in HUVEC), UniProt Q14247 1-550, looked up)
chain: B1 chain
modifications: phosphoserine at 405
